The text below walks through data of US20110158985A1 (published 2011).

The Kd is the equilibrium constant for the complex coming apart. As a reminder, the koff is the rate constant with which the complex falls apart. The kon is a measure of how fast the partners come together.

Assay [1] concerns the target T1, recombinant C-terminally truncated RSV (A2 strain) F protein (RSV (A2 strain), UniProt P03420 26-524).
T1 construct: extracellular domain; also called truncated F protein; extracellular domain of the F protein from RSV A2
Kind of assay: SPR (BIAcore), IgG over immobilised F. A general note: Surface plasmon resonance follows binding to a sensor surface in real time, without labels.
Target sequence in this assay (P03420 26-109, chain 1 of 2): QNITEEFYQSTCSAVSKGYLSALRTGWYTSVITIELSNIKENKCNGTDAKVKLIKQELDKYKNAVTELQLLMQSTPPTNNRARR
Target sequence in this assay (P03420 137-524, chain 2 of 2): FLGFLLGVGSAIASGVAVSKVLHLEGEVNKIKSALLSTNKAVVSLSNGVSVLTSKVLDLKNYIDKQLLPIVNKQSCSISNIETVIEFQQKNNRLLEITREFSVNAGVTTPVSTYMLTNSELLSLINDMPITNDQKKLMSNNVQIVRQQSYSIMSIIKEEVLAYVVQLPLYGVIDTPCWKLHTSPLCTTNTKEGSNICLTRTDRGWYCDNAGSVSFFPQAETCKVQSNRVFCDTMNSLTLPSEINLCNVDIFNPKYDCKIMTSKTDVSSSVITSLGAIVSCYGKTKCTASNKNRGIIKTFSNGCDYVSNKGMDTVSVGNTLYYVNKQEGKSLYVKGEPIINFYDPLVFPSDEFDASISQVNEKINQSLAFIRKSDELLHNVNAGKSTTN

Assay [2] concerns the target T2, RSV F glycoprotein (NUF4) (respiratory syncytial virus).
T2 chain 1: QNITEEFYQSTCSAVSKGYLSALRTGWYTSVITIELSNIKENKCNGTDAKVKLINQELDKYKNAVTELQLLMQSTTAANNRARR
T2 chain 2: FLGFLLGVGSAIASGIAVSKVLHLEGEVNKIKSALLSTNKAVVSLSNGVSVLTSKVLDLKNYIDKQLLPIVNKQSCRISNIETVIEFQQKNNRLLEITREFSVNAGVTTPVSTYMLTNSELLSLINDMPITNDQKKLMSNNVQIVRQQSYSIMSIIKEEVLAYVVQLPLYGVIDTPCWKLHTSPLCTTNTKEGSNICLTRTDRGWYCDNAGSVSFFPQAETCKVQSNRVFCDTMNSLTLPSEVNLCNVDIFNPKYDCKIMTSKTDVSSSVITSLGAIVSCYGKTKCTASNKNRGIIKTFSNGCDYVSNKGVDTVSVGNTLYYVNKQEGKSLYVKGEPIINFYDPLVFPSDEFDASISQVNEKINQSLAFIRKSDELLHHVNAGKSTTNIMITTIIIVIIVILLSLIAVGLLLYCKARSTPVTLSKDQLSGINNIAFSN
Nature of the assay: ITC, NUF4 titrated into antibody, 35 C. Background: In ITC the heat of successive injections is recorded.
Description: The binding thermodynamics of the antibodies were determined from ITC measurements using a Microcal, Inc. VP Titration Calorimeter. The VP titration calorimeter consists of a matched pair of sample and reference vessels (1.409 ml) enclosed in an adiabatic enclosure and a rotating stirrer-syringe for titrating ligand solutions into the sample vessel. The ITC measurements were performed at 25° C. and 35° C. The sample vessel contained the antibody in the phosphate buffer while the reference vessel contained just the buffer solution. The phosphate buffer solution was saline 67 mM PO₄ at pH 7.4 from HyClone, Inc. Five or ten μl aliquots of the 0.05 to 0.1 mM NUF4 solution were titrated 3 to 4 minutes apart into the antibody sample solution until the binding was saturated as evident by the lack of a heat exchange signal. […] This was attributed to a heat of dilution of the NUF4 titrant and was subtracted from the titrant heats obtained during the titration prior to analysis of the data.
A non-linear, least square minimization software program from Microcal, Inc., Origin 5.0, was used to fit the incremental heat of the ith titration (ΔQ (i)) of the total heat, Qₜ, to the total titrant concentration, Xₜ, according to the following equations (I),

The target in assay [3] is T2, RSV F glycoprotein (NUF4). Kind of assay: SPR (BIAcore), mAb vs NUF4 (2:1).
The target in assay [4] is T3, F protein of RSV (Long strain) (RSV (Long strain), UniProt P12568 26-574). Nature of the assay: cell-based or functional assay.
Assay [5] concerns the target T3, F protein of RSV (Long strain). Nature of the assay: cell-based or functional assay. This is another data set of the same source.
Target sequence in this assay (P12568 26-574): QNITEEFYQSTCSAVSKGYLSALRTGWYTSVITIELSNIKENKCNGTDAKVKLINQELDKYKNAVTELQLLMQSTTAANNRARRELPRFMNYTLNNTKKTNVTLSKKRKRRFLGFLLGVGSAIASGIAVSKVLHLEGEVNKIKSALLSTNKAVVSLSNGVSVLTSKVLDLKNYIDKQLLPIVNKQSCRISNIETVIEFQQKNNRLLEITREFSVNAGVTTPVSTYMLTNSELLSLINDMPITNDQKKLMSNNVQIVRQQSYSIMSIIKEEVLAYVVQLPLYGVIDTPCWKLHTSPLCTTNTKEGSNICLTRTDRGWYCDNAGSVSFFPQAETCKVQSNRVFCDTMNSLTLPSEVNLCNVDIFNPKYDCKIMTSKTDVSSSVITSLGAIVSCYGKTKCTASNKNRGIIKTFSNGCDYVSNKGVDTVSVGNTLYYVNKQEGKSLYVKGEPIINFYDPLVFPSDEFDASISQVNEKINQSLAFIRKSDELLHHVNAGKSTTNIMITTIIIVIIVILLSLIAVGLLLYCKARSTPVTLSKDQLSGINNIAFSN
The next assay has as its target Bac-F (respiratory syncytial virus). Kind of assay: SPR (BIAcore), mAb vs Bac-F (1:1).
The target in assay [6] is T2, RSV F glycoprotein (NUF4). Nature of the assay: SPR (BIAcore), mAb vs NUF4 (1:1).
Assay [7] deals with T1, recombinant C-terminally truncated RSV …. Nature of the assay: SPR (BIAcore), Fab over immobilised F.
Assay [8] has the same target. Kind of assay: SPR (BIAcore), Fab over immobilised F. This is another data set of the same source.
Assay [9] addresses T3, F protein of RSV (Long strain). Kind of assay: cell-based or functional assay. This is another data set of the same source.
Assay [10] has as its target T1, recombinant C-terminally truncated RSV …. Nature of the assay: SPR (BIAcore), Fab over immobilised F. The source holds these as a separate data set.
Assay [11] has the same target. Nature of the assay: SPR (BIAcore), IgG over immobilised F. The source holds these as a separate data set.
Target sequence in this assay (P03420 26-109, chain 1 of 2): as the sequence (P03420 26-109, chain 1 of 2) above
Target sequence in this assay (P03420 137-524, chain 2 of 2): as the sequence (P03420 137-524, chain 2 of 2) above
The next assay deals with RSV F protein (purified) (respiratory syncytial virus). Nature of the assay: SPR (BIAcore), F protein immobilised.

Substitutions are numbered along the chain they refer to. Names and notes keep the numbering of the source. Values joined by “and” are separate entries in the source; they are usually repeats but may differ in a detail not shown here. Equal entries are not always repeated. Where two headings read alike, the source gives them in different places. A value given as a limit tells only on which side of the number the result lay.

Chain of Bac-F (respiratory syncytial virus) (P03420 26-524): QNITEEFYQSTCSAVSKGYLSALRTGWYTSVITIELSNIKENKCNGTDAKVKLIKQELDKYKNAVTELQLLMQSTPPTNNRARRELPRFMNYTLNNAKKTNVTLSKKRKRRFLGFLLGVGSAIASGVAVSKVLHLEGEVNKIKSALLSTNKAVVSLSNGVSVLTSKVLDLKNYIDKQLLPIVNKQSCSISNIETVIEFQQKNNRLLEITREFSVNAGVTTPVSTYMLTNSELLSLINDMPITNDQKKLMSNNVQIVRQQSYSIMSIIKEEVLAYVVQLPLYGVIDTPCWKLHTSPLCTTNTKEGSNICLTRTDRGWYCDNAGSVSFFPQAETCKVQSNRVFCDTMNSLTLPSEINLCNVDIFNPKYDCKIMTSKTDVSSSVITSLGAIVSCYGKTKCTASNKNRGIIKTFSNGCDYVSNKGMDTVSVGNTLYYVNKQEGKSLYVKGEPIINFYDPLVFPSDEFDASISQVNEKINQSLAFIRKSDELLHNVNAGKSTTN

B1: A13c4 IgG (antibody, V domains shown)
VH: QVTLRESGPALVKPTQTLTLTCTFSGFSLSTAGMSVGWIRQPPGKALEWLADIWWDGKKSYNPSLKDRLTISKDTSKNQVVLKVTNMDPADTATYYCARDMIFNFYFDVWGQGTTVTVSS
VL: DIQMTQSPSTLSASVGDRVTITCSLSSRVGYMHWYQQKPGKAPKLLIYDTMYQSSGVPSRFSGSGSGTEFTLTISSLQPDDFATYYCFQGSGYPFTFGGGTKVEIKR
Take B1: in assay [1], the dissociation constant Kd was 132 pM, the koff came out at 3.96e-05 s⁻¹ and the association rate constant (kon) was found to be 300000 M⁻¹ s⁻¹. In addition, in [2], the Ka amounted to 1.07e+08 M⁻¹, binding was characterised by a dissociation constant (Kd) of 9000 pM and the ΔHb stood at 16 kcal/mol. In [3], the dissociation constant (Kd) came to 700 pM, the “fold in parentheses (palivizumab = 1)” value is 446 fold, the koff worked out at 0.000225 s⁻¹ and the kon is 320000 M⁻¹ s⁻¹. Besides, the “Microneutralization IC50, IgG” value in [4] was 0.0376 µg/ml and 0.25 nM. Besides, in assay [5], the “Mean IC50 (Control)” value turned out to be 0.0375 µg/mL and the “Mean IC50 (Curve)” value was found to be 0.0376 µg/mL. Moreover, in the assay with Bac-F, the Kd came to 130 pM and the “fold in parentheses (palivizumab = 1)” value came to 30 fold. Also, in [6], binding was put at a Kd of 750 pM, the “fold in parentheses (palivizumab = 1)” value stood at 12 fold, the koff was determined as 0.000272 s⁻¹ and the kon amounted to 365000 M⁻¹ s⁻¹.

B2: S32A Fab (Fab, name in Kabat numbering, V domains shown)
VH: B1 VH with G57D, S60D, D67S, D100S, F103T, F105W
VL: DIQMTQSPSTLSASVGDRVTITCSASSSVGYMHWYQQKPGKAPKLLIYDTSKLASGVPSRFSGSGSGTEFTLTISSLQPDDFATYYCFQGSGYPFTFGGGTKVEIK
For B2, the “fold improvement in affinity over 493L1FR Fab” value in assay [7] is 3 to 7 fold. Further, in assay [8], the dissociation constant Kd stood at 470 pM, the dissociation rate constant (koff) was 9.3e-05 s⁻¹ and the kon is 196000 M⁻¹ s⁻¹. The “Microneutralization IC50, Fab” value in assay [9] is 4.85 µg/ml and 97 nM.

B3: A17f5 Fab (Fab, V domains shown)
VH: B1 VH with G57D, S60D, F105W
VL: B2 VL with A25L, S28R, S51F, K52R, L53H, A54T
B3: in assay [7], the “fold improvement in koff (against palivizumab Fab)” value came to 8 fold and the “fold increase in kon over W100F” value is 3 fold. Further, the “Microneutralization IC50, Fab” value in [4] was 0.106 µg/ml and 2.12 nM. Besides, in assay [10], the dissociation constant Kd came out at 154 pM, the koff worked out at 8.4e-05 s⁻¹ and the kon is 544000 M⁻¹ s⁻¹.

B4: W100F Fab (Fab, name in Kabat numbering, V domains shown)
VH: B1 VH with A32S, G57D, S60D, D67S, D100S, F103T
VL: B2 VL
As for B4, the “fold improvement in koff (against palivizumab Fab)” value in assay [7] was 8 fold. For the same molecule, in [8], the Kd stood at 510 pM, the koff came to 8.4e-05 s⁻¹ and the kon was found to be 165000 M⁻¹ s⁻¹. The “Microneutralization IC50, Fab” value in [9] is 2.6 µg/ml and 52 nM.

B5: AFFY IgG (antibody, name in Kabat numbering, V domains shown)
VH: B1 VH with G57D, S60D, D67S, D100S, F103T
VL: B2 VL with S51F, G92Y
Take B5: in assay [11], the koff was at most 5e-06 s⁻¹ and the kon was 144000 M⁻¹ s⁻¹. Further, in assay [9], the “Microneutralization IC50, IgG” value is 0.407 µg/ml and 2.71 nM.

B6: AFFG IgG (antibody, name in Kabat numbering, V domains shown)
VH: B1 VH with G57D, S60D, D67S, D100S, F103T
VL: B2 VL with S51F
With B6, in [11], the koff was at most 5e-06 s⁻¹ and the association rate constant (kon) turned out to be 147000 M⁻¹ s⁻¹. In addition, the “Microneutralization IC50, IgG” value in assay [9] was 0.453 µg/ml and 3.02 nM.

B7: AFSF Fab (Fab, name in Kabat numbering, V domains shown)
VH: B1 VH with G57D, S60D, D67S, D100S, F103T
VL: B2 VL with G92F
With B7, in assay [7], the “fold higher affinity than palivizumab Fab” value was above 117 fold. For the same molecule, in [8], the dissociation constant Kd was at most 44 pM, the off-rate constant (koff) is at most 5e-06 s⁻¹ and the kon is 113000 M⁻¹ s⁻¹. In [9], the “Microneutralization IC50, Fab” value was 0.0908 µg/ml and 1.82 nM.

B8: AFFY Fab (Fab, name in Kabat numbering, V domains shown)
VH: B1 VH with G57D, S60D, D67S, D100S, F103T
VL: B2 VL with S51F, G92Y
Consider B8, for which the “fold higher affinity than palivizumab Fab” value in [7] is above 117 fold. In assay [8], the Kd is at most 41 pM, the koff was at most 5e-06 s⁻¹ and the on-rate constant (kon) is 122000 M⁻¹ s⁻¹. Moreover, the “Microneutralization IC50, Fab” value in assay [9] was 0.0754 µg/ml and 1.51 nM.

B9: PFFF Fab (Fab, name in Kabat numbering, V domains shown)
VH: B1 VH with A32P, G57D, S60D, D67S, D100S, F103T
VL: B2 VL with S51F, G92F
For the molecule B9, the “fold higher affinity than palivizumab Fab” value in assay [7] was above 117 fold. Further, in assay [8], the equilibrium dissociation constant (Kd) is at most 45 pM, the off-rate constant (koff) was at most 5e-06 s⁻¹ and the on-rate (kon) was 110000 M⁻¹ s⁻¹.

B10: AFSF IgG (antibody, name in Kabat numbering, V domains shown)
VH: B1 VH with G57D, S60D, D67S, D100S, F103T
VL: B2 VL with G92F
With B10, in [11], the off-rate (koff) was at most 5e-06 s⁻¹ and the kon amounted to 147000 M⁻¹ s⁻¹. In addition, the “Microneutralization IC50, IgG” value in assay [9] was 0.521 µg/ml and 3.47 nM.

B11: G93F Fab (Fab, name in Kabat numbering, V domains shown)
VH: B1 VH with A32S, G57D, S60D, D67S, D100S, F103T, F105W
VL: B2 VL with G92F
B11: in assay [7], the “fold improvement in affinity over 493L1FR Fab” value was in the range of 3 to 7 fold. For the same molecule, in assay [8], the Kd stood at 1070 pM, the dissociation rate constant (koff) turned out to be 0.000174 s⁻¹ and the association rate constant (kon) worked out at 163000 M⁻¹ s⁻¹. Further, in assay [9], the “Microneutralization IC50, Fab” value was 8.84 µg/ml and 177 nM.

B12: AFFG Fab (Fab, name in Kabat numbering, V domains shown)
VH: B1 VH with G57D, S60D, D67S, D100S, F103T
VL: B2 VL with S51F
Regarding B12, the “fold higher affinity than palivizumab Fab” value in [7] was above 117 fold. Moreover, in [8], the Kd was at most 38 pM, the koff is at most 5e-06 s⁻¹ and the kon stood at 133000 M⁻¹ s⁻¹. Also, the “Microneutralization IC50, Fab” value in [9] is 0.249 µg/ml and 4.98 nM.

B13: A17d4(1) IgG (antibody, V domains shown)
VH: B1 VH
VL: B1 VL with S24L, L25P
Consider B13, for which, in assay [1], the Kd was found to be 89 pM, the dissociation rate constant (koff) is 4.07e-05 s⁻¹ and the on-rate (kon) worked out at 456000 M⁻¹ s⁻¹. In [2], this molecule displayed a Ka of 7.5e+07 M⁻¹, a Kd of 13000 pM and a ΔHb of 16.3 kcal/mol. Moreover, in assay [3], the Kd is 1110 pM, the “fold in parentheses (palivizumab = 1)” value came to 281 fold, the koff was found to be 0.000292 s⁻¹ and the kon worked out at 264000 M⁻¹ s⁻¹. For the same molecule, in [4], the “Microneutralization IC50, IgG” value was 0.0342 µg/ml and 0.23 nM. Moreover, in assay [5], the “Mean IC50 (Control)” value worked out at 0.0354 µg/mL and the “Mean IC50 (Curve)” value worked out at 0.0342 µg/mL. Besides, in the assay with Bac-F, the Kd was 90 pM and the “fold in parentheses (palivizumab = 1)” value came to 43 fold. In addition, in [6], the Kd came to 730 pM, the “fold in parentheses (palivizumab = 1)” value is 12 fold, the koff worked out at 0.000362 s⁻¹ and the kon was 499000 M⁻¹ s⁻¹.

B14: AFFF(1) Fab (Fab, V domains shown)
VH: B1 VH with G57D, S60D, D67S, D100S, F103T
VL: B2 VL with S51F, G92F
notes: also called AHH(1)
Regarding B14, the “fold higher affinity than palivizumab Fab” value in [7] was above 117 fold. The dissociation constant Kd in assay [8] and in assay [10] was at most 37 pM throughout. The koff is at most 5e-06 s⁻¹ in [8]; at most 5e-06 s⁻¹ in assay [10]; 0.000245 s⁻¹ and 0.000446 s⁻¹ and 0.000268 s⁻¹ with RSV F protein (purified). In addition, the on-rate (kon) in assay [8] is 134000 M⁻¹ s⁻¹; in assay [10], 134000 M⁻¹ s⁻¹; in the assay with RSV F protein (purified) it was 212000 M⁻¹ s⁻¹ and 156000 M⁻¹ s⁻¹ and 186000 M⁻¹ s⁻¹. The “Microneutralization IC50, Fab” value in assay [4] is 0.0715 µg/ml and 1.43 nM; in assay [9] it was 0.0715 µg/ml and 1.43 nM.
